# Target: BLM (UniProt P54132)
# Experiment: co-IP and western blot
# Details: reference: wild type USP37; sites S114
substance,measurement,value
USP37 (from UniProt Q86T82) S114A,binding against the reference,weaker

# — PMC8565321
